Laboratory results: the supplement of paper PMC7125110
± gives the standard error. For some of these results: Variants at the floor of the assay were thinned out.

B1: glmS ribozyme (parent)
chain: AUAAAAGCGCCAGAACUACAGAAAUGUAGUUGACGAGGAGGAGGUUUAUCGAAUUUUCGGCGGAUGCCUCCAAA

Columns and labels:
Details in all cases: with glucosamine-6-phosphate
[1] = variants of: B1; test: kcat; higher = faster cleavage; RNA array
Summary of the method: (§1)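 Using a hybridised Cy3 probe at 37 °C, barcoded ribozyme variants transcribed in situ by E. coli RNA polymerase on sequenced MiSeq chips were monitored across tiles imaged over ~14 h. The flow contained glucosamine-6-phosphate from 40 μM to 10 mM in HEPES/KCl/Mg(OAc)2 buffer. Signals were normalised to baseline and to non-cleaving reference variants before per-tile medians were fit to one- or two-exponential decays to yield kobs. Weighted Michaelis–Menten fits across concentrations gave kcat and KM.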

[2] = variants of: B1; test: KM; higher = weaker cofactor use; RNA array
Summary of the method: as §1

[3] = variants of: B1; test: self-cleavage kobs at 160 uM GlcN6P; higher = faster cleavage; RNA array
Summary of the method: as §1

[4] = variants of: B1; test: self-cleavage kobs at 640 uM GlcN6P; higher = faster cleavage; RNA array
Summary of the method: as §1

[5] = variants of: B1; test: self-cleavage kobs at 2500 uM GlcN6P; higher = faster cleavage; RNA array
Summary of the method: as §1

[6] = variants of: B1; test: self-cleavage kobs at 10000 uM GlcN6P; higher = faster cleavage; RNA array
Summary of the method: as §1

[7] = variants of: B1; test: self-cleavage kobs at 40 uM GlcN6P; higher = faster cleavage; RNA array
Summary of the method: as §1

Variant | kcat [1] [s⁻¹] | KM [2] [µM] | self-cleavage kobs at 160 uM GlcN6P [3] [s⁻¹] | self-cleavage kobs at 640 uM GlcN6P [4] [s⁻¹] | self-cleavage kobs at 2500 uM GlcN6P [5] [s⁻¹] | self-cleavage kobs at 10000 uM GlcN6P [6] [s⁻¹] | self-cleavage kobs at 40 uM GlcN6P [7] [s⁻¹]
U30C C71U | 0.000335 ± 3.4e-05 | 1530 ± 340 | 4.2e-05 ± 6.8e-06 | 9.35e-05 ± 1e-05 | 0.000195 ± 1.6e-05 | 0.000307 ± 2.3e-05 | –
C16U A48U | 0.000375 ± 9.7e-06 | 2630 ± 150 | – | 7.24e-05 ± 1.5e-05 | 0.000181 ± 4.1e-05 | 0.000297 ± 3.3e-05 | –
C16U A48G | 7.95e-05 ± 1.2e-05 | – | – | – | 6.63e-05 ± 1.1e-05 | 6.95e-05 ± 8.6e-06 | –
U30C C58G C68A | 5.09e-05 ± 2.1e-05 | – | – | 9.15e-05 ± 3.9e-05 | 7.09e-05 ± 1.9e-05 | – | –
C19A C67G | 0.000349 ± 4.1e-05 | 295 ± 93 | 0.000171 ± 4.8e-05 | 0.000207 ± 7.2e-05 | 0.000309 ± 7.1e-05 | 0.000347 ± 7.3e-05 | –
U30C G66C | < 1e-05 | 347 ± 120 | – | < 1e-05 | < 1e-05 | – | –
U30C G66A | 0.000173 ± 3.1e-05 | 1860 ± 840 | – | 3.92e-05 ± 1e-05 | 0.000153 ± 3.4e-05 | 0.00014 ± 1.9e-05 | –
G29U C61G | 3.41e-05 ± 1.3e-05 | – | – | – | – | < 1e-05 | –
C16U G66C | 0.000514 ± 9.1e-05 | 657 ± 250 | 9.64e-05 ± 2.1e-05 | 0.000282 ± 4e-05 | 0.000496 ± 7.3e-05 | 0.000398 ± 7.3e-05 | –
G29A A53U | 0.00212 ± 0.00065 | – | 0.000233 ± 5.5e-05 | 0.000595 ± 9.3e-05 | 0.00129 ± 0.00019 | 0.00276 ± 0.00055 | 9.5e-05 ± 1.9e-05
C16U G37U G51C | < 1e-05 | – | < 1e-05 | < 1e-05 | – | – | < 1e-05
C16U G29U | 0.00871 ± 0.0037 | – | 0.000639 ± 8.5e-05 | 0.00245 ± 0.00028 | 0.00415 ± 0.00061 | 0.0111 ± 0.0014 | 0.000315 ± 2.9e-05
G21U | 0.0659 ± 0.016 | 2090 ± 600 | 0.00351 ± 0.00055 | 0.0147 ± 0.0015 | 0.0337 ± 0.0063 | 0.059 ± 0.0083 | 0.00136 ± 8.6e-05
U30C U55G | 0.00036 ± 1.6e-05 | 1480 ± 160 | – | 0.000105 ± 2.8e-05 | 0.000236 ± 4.5e-05 | 0.000307 ± 5.8e-05 | –
C16U U57G C61A | 1.37e-05 ± 2e-06 | – | – | – | – | – | –
U30C C68G | 4.61e-05 ± 1.8e-05 | – | 5.26e-05 ± 1.7e-05 | 8.37e-05 ± 1.7e-05 | 8.75e-05 ± 1.7e-05 | 2.14e-05 ± 9.4e-06 | 3.15e-05 ± 1.2e-05
C16U A64G | 0.018 ± 0.0074 | – | 0.00126 ± 0.00023 | 0.00457 ± 0.00072 | 0.0111 ± 0.0028 | 0.0176 ± 0.0031 | 0.000665 ± 7.5e-05

Variant | kcat [1] [s⁻¹] | KM [2] [µM] | self-cleavage kobs at 160 uM GlcN6P [3] [s⁻¹] | self-cleavage kobs at 640 uM GlcN6P [4] [s⁻¹] | self-cleavage kobs at 2500 uM GlcN6P [5] [s⁻¹] | self-cleavage kobs at 10000 uM GlcN6P [6] [s⁻¹] | self-cleavage kobs at 40 uM GlcN6P [7] [s⁻¹]
G29U A48U | 4.34e-05 ± 5.3e-06 | – | – | – | 4.72e-05 ± 1.3e-05 | 3.9e-05 ± 9.4e-06 | –
G29U A48G | 1.1e-05 ± 1.6e-06 | – | – | – | – | – | –
U30A G60A | < 1e-05 | – | – | < 1e-05 | – | – | < 1e-05
G29C G40A | 0.000208 ± 2.8e-05 | 747 ± 260 | 3.05e-05 ± 9.1e-06 | 0.000102 ± 1.6e-05 | 0.000221 ± 3.6e-05 | 0.000178 ± 2.1e-05 | –
G29U G59A | 1.03e-05 ± 3.2e-06 | – | – | – | – | – | < 1e-05
G29U G59U | < 1e-05 | – | < 1e-05 | – | – | – | –
U30C G32C | 0.000399 ± 5.8e-05 | 3500 ± 1100 | – | 5.99e-05 ± 1.9e-05 | 0.000157 ± 3e-05 | 0.0003 ± 3.4e-05 | –
U30C G32U | 0.000492 ± 0.00011 | 3230 ± 1300 | – | 9.97e-05 ± 1.7e-05 | 0.000183 ± 2.9e-05 | 0.000403 ± 5.7e-05 | –
G29A U47C | 0.000269 ± 1.9e-05 | 1400 ± 310 | – | 8.17e-05 ± 2.3e-05 | 0.000223 ± 9.2e-05 | 0.000233 ± 3.2e-05 | –
G29A U47A | 0.00354 ± 0.0016 | – | 0.000152 ± 2.6e-05 | 0.000727 ± 0.00012 | 0.00153 ± 0.00024 | 0.00308 ± 0.00042 | 0.000101 ± 1.2e-05
C19A G40C | 0.00125 ± 0.00032 | 832 ± 360 | 0.000173 ± 5.2e-05 | 0.000434 ± 0.00012 | 0.00156 ± 0.00041 | 0.00113 ± 0.00023 | 7.99e-05 ± 1.9e-05
G29C C71A | 0.000154 ± 3.1e-05 | – | – | 0.000104 ± 1.9e-05 | 0.000119 ± 2.7e-05 | 0.000253 ± 7.8e-05 | –
G29C C71G | 8.64e-05 ± 1.2e-05 | – | 5.06e-05 ± 1.3e-05 | 3.96e-05 ± 1.4e-05 | 8.9e-05 ± 1.2e-05 | 8.49e-05 ± 1e-05 | –
G29U C50A G66U | 1.4e-05 ± 4.4e-06 | – | – | – | – | – | –
G29U A64U | 1.06e-05 ± 2.5e-07 | 4920 ± 300 | < 1e-05 | < 1e-05 | – | – | –
G29A G41U | 9.86e-05 ± 5e-06 | 1050 ± 200 | – | 3.55e-05 ± 1.5e-05 | 7.35e-05 ± 1.6e-05 | 8.74e-05 ± 1.5e-05 | –
